# Measured values as given in PMC9242541, “Importance of Rare DPYD Genetic Polymorphisms for 5-Fluorouracil Therapy in the Japanese Population” (Frontiers in Pharmacology, 2022).
# Biological target: the molecule itself
# Assay: native gel or EMSA; blue native PAGE (Tris-glycine buffer, 5%-20% polyacrylamide gels), 9 μg of the soluble fraction of transfected 293FT cells per lane, immunoblot with polyclonal anti-human DPD antibody; monomer to dimer
row,Protein,stoichiometry N
1,"DPD variant G366A (enzyme, human, UniProt Q12882 4-1025, looked up, dihydropyrimidine dehydrogenase (DPD), human, DPYD cDNA with a variant found in Japanese individuals; made by site-directed mutagenesis of the wild-type construct; also called 1097G > C; source: 293FT cells, transfected (pcDNA3.4), soluble fraction) VLSKDSADIESILALNPRTQTHATLCSTSAKKLDKKHWKRNPDKNCFNCEKLENNFDDIKHTTLGERGALREAMRCLKCADAPCQKSCPTNLDIKSFITSIANKNYYGAAKMIFSDNPLGLTCGMVCPTSDLCVGGCNLYATEEGPINIGGLQQFATEVFKAMSIPQIRNPSLPPPEKMSEAYSAKIALFGAGPASISCASFLARLGYSDITIFEKQEYVGGLSTSEIPQFRLPYDVVNFEIELMKDLGVKIICGKSLSVNEMTLSTLKEKGYKAAFIGIGLPEPNKDAIFQGLTQDQGFYTSKDFLPLVAKGSKAGMCACHSPLPSIRGVVIVLGAGDTAFDCATSALRCGARRVFIVFRKAFVNIRAVPEEMELAKEEKCEFLPFLSPRKVIVKGGRIVAMQFVRTEQDETGKWNEDEDQMVHLKADVVISAFGSVLSDPKVKEALSPIKFNRWGLPEVDPETMQTSEAWVFAGGDVVGLANTTVESVNDGKQASWYIHKYVQSQYGASVSAKPELPLFYTPIDLVDISVEMAGLKFINPFGLASATPATSTSMIRRAFEAGWGFALTKTFSLDKDIVTNVSPRIIRGTTSGPMYGPGQSSFLNIELISEKTAAYWCQSVTELKADFPDNIVIASIMCSYNKNDWTELAKKSEDSGADALELNLSCPHGMGERGMGLACGQDPELVRNICRWVRQAVQIPFFAKLTPNVTDIVSIARAAKEGGANGVTATNTVSGLMGLKSDGTPWPAVGIAKRTTYGGVSGTAIRPIALRAVTSIARALPGFPILATGGIDSAESGLQFLHSGASVLQVCSAIQNQDFTVIEDYCTGLKALLYLKSIEELQDWDGQSPATVSHQKGKPVPRIAELMDKKLPSFGPYLEQRKKIIAENKIRLKEQNVAFSPLKRNCFIPKRPIPTIKDVIGKALQYLGTFGELSNVEQVVAMIDEEMCINCGKCYMTCNDSGYQAIQFDPETHLPTITDTCTGCTLCLSVCPIVDCIKMVSRTTPYEPKRGVPLSVNPVC",2
2,"DPD variant H25R (enzyme, human, UniProt Q12882 4-1025, looked up, dihydropyrimidine dehydrogenase (DPD), human, DPYD cDNA with a variant found in Japanese individuals; made by site-directed mutagenesis of the wild-type construct; also called 74A > G; source: 293FT cells, transfected (pcDNA3.4), soluble fraction) VLSKDSADIESILALNPRTQTRATLCSTSAKKLDKKHWKRNPDKNCFNCEKLENNFDDIKHTTLGERGALREAMRCLKCADAPCQKSCPTNLDIKSFITSIANKNYYGAAKMIFSDNPLGLTCGMVCPTSDLCVGGCNLYATEEGPINIGGLQQFATEVFKAMSIPQIRNPSLPPPEKMSEAYSAKIALFGAGPASISCASFLARLGYSDITIFEKQEYVGGLSTSEIPQFRLPYDVVNFEIELMKDLGVKIICGKSLSVNEMTLSTLKEKGYKAAFIGIGLPEPNKDAIFQGLTQDQGFYTSKDFLPLVAKGSKAGMCACHSPLPSIRGVVIVLGAGDTAFDCATSALRCGARRVFIVFRKGFVNIRAVPEEMELAKEEKCEFLPFLSPRKVIVKGGRIVAMQFVRTEQDETGKWNEDEDQMVHLKADVVISAFGSVLSDPKVKEALSPIKFNRWGLPEVDPETMQTSEAWVFAGGDVVGLANTTVESVNDGKQASWYIHKYVQSQYGASVSAKPELPLFYTPIDLVDISVEMAGLKFINPFGLASATPATSTSMIRRAFEAGWGFALTKTFSLDKDIVTNVSPRIIRGTTSGPMYGPGQSSFLNIELISEKTAAYWCQSVTELKADFPDNIVIASIMCSYNKNDWTELAKKSEDSGADALELNLSCPHGMGERGMGLACGQDPELVRNICRWVRQAVQIPFFAKLTPNVTDIVSIARAAKEGGANGVTATNTVSGLMGLKSDGTPWPAVGIAKRTTYGGVSGTAIRPIALRAVTSIARALPGFPILATGGIDSAESGLQFLHSGASVLQVCSAIQNQDFTVIEDYCTGLKALLYLKSIEELQDWDGQSPATVSHQKGKPVPRIAELMDKKLPSFGPYLEQRKKIIAENKIRLKEQNVAFSPLKRNCFIPKRPIPTIKDVIGKALQYLGTFGELSNVEQVVAMIDEEMCINCGKCYMTCNDSGYQAIQFDPETHLPTITDTCTGCTLCLSVCPIVDCIKMVSRTTPYEPKRGVPLSVNPVC",2
3,"DPD variant K384E (enzyme, human, UniProt Q12882 4-1025, looked up, dihydropyrimidine dehydrogenase (DPD), human, DPYD cDNA with a variant found in Japanese individuals; made by site-directed mutagenesis of the wild-type construct; also called 1150A > G; source: 293FT cells, transfected (pcDNA3.4), soluble fraction) VLSKDSADIESILALNPRTQTHATLCSTSAKKLDKKHWKRNPDKNCFNCEKLENNFDDIKHTTLGERGALREAMRCLKCADAPCQKSCPTNLDIKSFITSIANKNYYGAAKMIFSDNPLGLTCGMVCPTSDLCVGGCNLYATEEGPINIGGLQQFATEVFKAMSIPQIRNPSLPPPEKMSEAYSAKIALFGAGPASISCASFLARLGYSDITIFEKQEYVGGLSTSEIPQFRLPYDVVNFEIELMKDLGVKIICGKSLSVNEMTLSTLKEKGYKAAFIGIGLPEPNKDAIFQGLTQDQGFYTSKDFLPLVAKGSKAGMCACHSPLPSIRGVVIVLGAGDTAFDCATSALRCGARRVFIVFRKGFVNIRAVPEEMELAKEEECEFLPFLSPRKVIVKGGRIVAMQFVRTEQDETGKWNEDEDQMVHLKADVVISAFGSVLSDPKVKEALSPIKFNRWGLPEVDPETMQTSEAWVFAGGDVVGLANTTVESVNDGKQASWYIHKYVQSQYGASVSAKPELPLFYTPIDLVDISVEMAGLKFINPFGLASATPATSTSMIRRAFEAGWGFALTKTFSLDKDIVTNVSPRIIRGTTSGPMYGPGQSSFLNIELISEKTAAYWCQSVTELKADFPDNIVIASIMCSYNKNDWTELAKKSEDSGADALELNLSCPHGMGERGMGLACGQDPELVRNICRWVRQAVQIPFFAKLTPNVTDIVSIARAAKEGGANGVTATNTVSGLMGLKSDGTPWPAVGIAKRTTYGGVSGTAIRPIALRAVTSIARALPGFPILATGGIDSAESGLQFLHSGASVLQVCSAIQNQDFTVIEDYCTGLKALLYLKSIEELQDWDGQSPATVSHQKGKPVPRIAELMDKKLPSFGPYLEQRKKIIAENKIRLKEQNVAFSPLKRNCFIPKRPIPTIKDVIGKALQYLGTFGELSNVEQVVAMIDEEMCINCGKCYMTCNDSGYQAIQFDPETHLPTITDTCTGCTLCLSVCPIVDCIKMVSRTTPYEPKRGVPLSVNPVC",2
4,"DPD variant A380V (enzyme, human, UniProt Q12882 4-1025, looked up, dihydropyrimidine dehydrogenase (DPD), human, DPYD cDNA with a variant found in Japanese individuals; made by site-directed mutagenesis of the wild-type construct; also called 1139C > T; source: 293FT cells, transfected (pcDNA3.4), soluble fraction) VLSKDSADIESILALNPRTQTHATLCSTSAKKLDKKHWKRNPDKNCFNCEKLENNFDDIKHTTLGERGALREAMRCLKCADAPCQKSCPTNLDIKSFITSIANKNYYGAAKMIFSDNPLGLTCGMVCPTSDLCVGGCNLYATEEGPINIGGLQQFATEVFKAMSIPQIRNPSLPPPEKMSEAYSAKIALFGAGPASISCASFLARLGYSDITIFEKQEYVGGLSTSEIPQFRLPYDVVNFEIELMKDLGVKIICGKSLSVNEMTLSTLKEKGYKAAFIGIGLPEPNKDAIFQGLTQDQGFYTSKDFLPLVAKGSKAGMCACHSPLPSIRGVVIVLGAGDTAFDCATSALRCGARRVFIVFRKGFVNIRAVPEEMELVKEEKCEFLPFLSPRKVIVKGGRIVAMQFVRTEQDETGKWNEDEDQMVHLKADVVISAFGSVLSDPKVKEALSPIKFNRWGLPEVDPETMQTSEAWVFAGGDVVGLANTTVESVNDGKQASWYIHKYVQSQYGASVSAKPELPLFYTPIDLVDISVEMAGLKFINPFGLASATPATSTSMIRRAFEAGWGFALTKTFSLDKDIVTNVSPRIIRGTTSGPMYGPGQSSFLNIELISEKTAAYWCQSVTELKADFPDNIVIASIMCSYNKNDWTELAKKSEDSGADALELNLSCPHGMGERGMGLACGQDPELVRNICRWVRQAVQIPFFAKLTPNVTDIVSIARAAKEGGANGVTATNTVSGLMGLKSDGTPWPAVGIAKRTTYGGVSGTAIRPIALRAVTSIARALPGFPILATGGIDSAESGLQFLHSGASVLQVCSAIQNQDFTVIEDYCTGLKALLYLKSIEELQDWDGQSPATVSHQKGKPVPRIAELMDKKLPSFGPYLEQRKKIIAENKIRLKEQNVAFSPLKRNCFIPKRPIPTIKDVIGKALQYLGTFGELSNVEQVVAMIDEEMCINCGKCYMTCNDSGYQAIQFDPETHLPTITDTCTGCTLCLSVCPIVDCIKMVSRTTPYEPKRGVPLSVNPVC",2
